In patent US20200061156A1 (UNIVERSITY OF QUEENSLAND, published 2020):

Columns and labels:
[1] = target: rat acid sensing ion channel subtype 1a (homomeric, expressed in Xenopus laevis oocytes) (rat) (UniProt P55926); test: cell-based or functional assay
[2] = target: rat acid sensing ion channel subtype 1a (homomeric, expressed in Xenopus laevis oocytes) (rat) (UniProt P55926); test: inhibition of rASIC1a currents in Xenopus oocytes
[3] = target: T1, rat acid sensing ion channel subtype 2a (homomeric, expressed in Xenopus laevis oocytes) (rat, UniProt Q62962 1-512); test: cell-based or functional assay
T1 sequence: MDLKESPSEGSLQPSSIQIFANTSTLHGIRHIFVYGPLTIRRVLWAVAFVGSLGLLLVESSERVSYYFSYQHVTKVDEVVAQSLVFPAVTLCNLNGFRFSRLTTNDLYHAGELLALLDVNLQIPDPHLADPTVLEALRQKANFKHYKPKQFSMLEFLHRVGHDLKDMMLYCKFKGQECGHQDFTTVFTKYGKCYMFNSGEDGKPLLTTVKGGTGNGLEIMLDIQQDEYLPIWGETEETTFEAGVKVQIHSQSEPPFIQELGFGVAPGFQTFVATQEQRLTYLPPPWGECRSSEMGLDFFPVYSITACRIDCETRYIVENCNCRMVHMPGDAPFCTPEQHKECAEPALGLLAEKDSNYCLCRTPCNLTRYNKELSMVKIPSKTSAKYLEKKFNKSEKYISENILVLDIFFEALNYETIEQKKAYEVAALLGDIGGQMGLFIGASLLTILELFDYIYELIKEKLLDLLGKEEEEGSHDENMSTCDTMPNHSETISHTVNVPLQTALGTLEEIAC

[4] = target: T2, rat acid sensing ion channel subtype 3 (homomeric, expressed in Xenopus laevis oocytes) (rat, UniProt O35240 1-533); test: cell-based or functional assay
T2 sequence: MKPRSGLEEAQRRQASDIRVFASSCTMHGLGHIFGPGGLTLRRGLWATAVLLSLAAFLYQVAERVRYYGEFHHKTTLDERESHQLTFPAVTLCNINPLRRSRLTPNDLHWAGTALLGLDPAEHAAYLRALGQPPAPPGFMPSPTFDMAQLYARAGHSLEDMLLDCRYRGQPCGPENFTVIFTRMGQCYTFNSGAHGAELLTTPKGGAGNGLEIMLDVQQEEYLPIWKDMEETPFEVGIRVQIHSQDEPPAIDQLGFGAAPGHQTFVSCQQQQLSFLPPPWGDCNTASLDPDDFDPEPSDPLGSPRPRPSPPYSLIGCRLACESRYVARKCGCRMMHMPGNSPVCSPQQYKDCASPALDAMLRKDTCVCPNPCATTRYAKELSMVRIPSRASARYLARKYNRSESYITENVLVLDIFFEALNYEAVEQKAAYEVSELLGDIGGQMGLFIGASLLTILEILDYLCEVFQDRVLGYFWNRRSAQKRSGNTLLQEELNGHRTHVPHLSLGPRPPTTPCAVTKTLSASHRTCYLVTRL

[5] = target: human acid sensing ion channel subtype 1a (homomeric, expressed in Xenopus laevis oocytes) (human), P78348; test: cell-based or functional assay
human acid sensing ion channel subtype 1a (homomeric, expressed in Xenopus laevis oocytes) (human), P78348, sequence (P78348 whole entry): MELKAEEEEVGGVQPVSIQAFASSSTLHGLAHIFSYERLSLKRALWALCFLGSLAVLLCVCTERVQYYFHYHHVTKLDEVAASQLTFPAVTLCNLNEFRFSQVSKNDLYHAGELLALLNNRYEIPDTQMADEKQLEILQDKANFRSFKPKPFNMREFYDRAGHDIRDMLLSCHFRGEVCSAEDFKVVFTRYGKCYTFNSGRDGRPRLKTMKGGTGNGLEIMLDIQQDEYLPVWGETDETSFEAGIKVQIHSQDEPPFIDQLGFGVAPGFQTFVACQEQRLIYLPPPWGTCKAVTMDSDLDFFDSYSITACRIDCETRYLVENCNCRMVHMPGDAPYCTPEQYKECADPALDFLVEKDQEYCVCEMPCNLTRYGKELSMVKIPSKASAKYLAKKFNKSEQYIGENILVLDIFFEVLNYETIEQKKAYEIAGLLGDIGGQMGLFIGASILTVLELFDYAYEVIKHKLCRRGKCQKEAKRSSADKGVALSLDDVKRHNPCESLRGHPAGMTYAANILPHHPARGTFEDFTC

[6] = target: rat acid sensing ion channel subtype 1b (homomeric, expressed in Xenopus laevis oocytes) (rat), P55926; test: cell-based or functional assay
rat acid sensing ion channel subtype 1b (homomeric, expressed in Xenopus laevis oocytes) (rat), P55926, sequence (P55926 whole entry): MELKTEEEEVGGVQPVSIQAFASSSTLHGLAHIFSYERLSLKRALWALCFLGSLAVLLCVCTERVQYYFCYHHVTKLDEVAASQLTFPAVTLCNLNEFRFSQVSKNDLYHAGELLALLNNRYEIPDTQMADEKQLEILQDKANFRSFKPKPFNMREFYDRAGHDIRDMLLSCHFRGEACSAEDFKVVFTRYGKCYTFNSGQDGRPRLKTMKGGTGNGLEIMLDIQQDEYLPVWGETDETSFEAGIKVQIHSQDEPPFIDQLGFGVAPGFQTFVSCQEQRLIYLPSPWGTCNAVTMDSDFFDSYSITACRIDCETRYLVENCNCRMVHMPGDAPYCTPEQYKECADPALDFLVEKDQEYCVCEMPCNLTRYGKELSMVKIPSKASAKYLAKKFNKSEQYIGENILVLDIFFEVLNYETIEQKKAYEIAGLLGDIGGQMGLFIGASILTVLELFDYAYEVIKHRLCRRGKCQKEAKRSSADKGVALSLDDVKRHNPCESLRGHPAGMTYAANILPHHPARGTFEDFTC

rat acid sensing ion channel subtype 1a (homomeric, expressed in Xenopus laevis oocytes) (rat), sequence (P55926 whole entry): as above

Molecule: N-terminal ICK domain of Hi1a (Hi1a-N), produced in E. coli (peptide)
- IC50 (inhibition of acid-evoked current, TEVC, Xenopus oocytes) [1]: 1 µM
- fold lower potency than PcTx1 or full-length Hi1a [1]: 1000 fold

Molecule: recombinant Hi1a (π-hexatoxin-Hi1a) expressed in E. coli
- IC50 [2]: 0.000464 µM

Molecule: recombinant Hi1d (peptide)
- % Residual Current [1]: 0%
- IC50 (inhibition of acid-evoked current, TEVC, Xenopus oocytes) [1]: 0.193 µM
- time to full reversal of inhibition on washout (TEVC) [1]: < 60 s

Molecule: C-terminal ICK domain of Hi1a (Hi1a-C), produced in E. coli
- IC50 [2]: > 30 µM

Molecule: recombinant Hi1a (π-hexatoxin-Hi1a) expressed in E. coli (peptide)
- % Residual Current [1]: 30%
- IC50 (inhibition of acid-evoked current, TEVC, Xenopus oocytes) [1]: 0.00046 µM

B1: recombinant engineered peptide #1 (EP 1), two copies of PcTx1 joined by a linker (designed binder)
peptide: SEDCIPKWKGCVNRHGDCCEGLECWKRRRSFEVCVPKTEDCIPKWKGCVNRHGDCCEGLECWKRRRSFEVCVPKTPKT
- % Residual Current [1]: 0%
- IC50 (inhibition of acid-evoked current, TEVC, Xenopus oocytes) [1]: 0.064 µM
- fold increase in IC50 against wild-type Hi1a [1]: 200 fold

B2: recombinant engineered peptide #2 (EP 2), as EP 1 with a Glu to Gly mutation in the linker (designed binder)
peptide: SEDCIPKWKGCVNRHGDCCEGLECWKRRRSFEVCVPKTGDCIPKWKGCVNRHGDCCEGLECWKRRRSFEVCVPKTPKT
- % Residual Current [1]: 0%
- IC50 (inhibition of acid-evoked current, TEVC, Xenopus oocytes) [1]: 0.215 µM
- fold increase in IC50 against wild-type Hi1a [1]: 500 fold

B3: recombinant Hi1a (π-hexatoxin-Hi1a) expressed in E. coli (peptide)
peptide: SNECIRKWLSCVDRKNDCCEGLECYKRRHSFEVCVPIPGFCLVKWKQCDGRERDCCAGLECWKRSGNKSSVCAPIT
- fold higher potency at ASIC1a over this subtype (from 1 µM Hi1a, TEVC) [3]: > 2000 fold
- selectivity for ASIC1a over this subtype (from 30 nM Hi1a, TEVC) [3]: ≥ 50 fold
- fold higher potency at ASIC1a over this subtype (from 1 µM Hi1a, TEVC) [4]: > 2000 fold
- selectivity for ASIC1a over this subtype (from 30 nM Hi1a, TEVC) [4]: ≥ 50 fold
- % Residual Current [5]: 20%
- IC50 (inhibition of acid-evoked current, TEVC, Xenopus oocytes) [5]: 0.00059 µM
- fold higher potency at ASIC1a over this subtype (from 1 µM Hi1a, TEVC) [6]: > 2000 fold
- selectivity for ASIC1a over this subtype (from 30 nM Hi1a, TEVC) [6]: > 50 fold
